Experimental data from the supplement of paper PMC10126150.
± gives the standard deviation of the averaged measurements.

test system: ATP; experiment: switch fluorescence ratio, 500 uM ATP over buffer (Cy3 cluster intensity, sum of 5 cycles each) (fold (ratio)); higher = stronger signal-on switching upon ATP binding; sequences stand for … in TCGTCGGCAGCGTCAGATGTGTATAAGAGACAGTTTTTTTTTTTTTTTTTTTTTTTTT…TC; conditions: aptamer strand: ATP DNA aptamer (quencher-CACCTGGGGGAGTATTGCGGAGGAAGG + anchor), 100 nM annealed; ATP concentration: 500 uM
In short: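 For every switch-domain sequence, the fluorescence ratio is the mean of per-cluster values, each being summed target-cycle Cy3 intensity over summed buffer-cycle Cy3 intensity. Clusters outside 100-1000 RFU were excluded. On a modified Illumina MiSeq flow-cell, the Cy3-labelled switching-strand clusters were annealed to 100 nM quencher-labelled ATP aptamer, imaged in selection buffer and then after 15 min with 500 uM ATP at 22 °C. Five such cycles were run, with NaOH stripping and re-annealing between them.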
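Note: ATP exposure 15 min at 22 °C before imaging.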

In order of rising switch fluorescence ratio:
1. AGTGCTGTTC  0.929 ± 0.082
2. AGTGTGCGGT  0.9491 ± 0.0089
3. AGTTGGTAAT  0.963 ± 0.06
4. AGTTTACTGG  0.9626 ± 0.0022
5. AGTCGTTGGA  0.96555 ± 0.00011
6. AGTGGTGGGG  0.966 ± 0.014
7. AGTTCGTAGA  0.966 ± 0.048
8. AGTGGAGGT  0.97 ± 0.041
9. AGTTTGGATA  0.97 ± 0.028
10. AGTCGTGTGT  0.971 ± 0.046
11. AGTGGCCGTC  0.974 ± 0.051
12. AGTGGTCCTT  0.974 ± 0.047
13. AGTGTGTCGG  0.974 ± 0.067
14. AGTGTGTTAT  0.974 ± 0.011
15. AGTTTATGTG  0.9746 ± 0.0073
16. AGTTATAAGT  0.979 ± 0.01
17. AGTTTGGGGA  0.979 ± 0.015
18. AGTCGTGGGC  0.98 ± 0.041
19. AGTTGATCCA  0.982 ± 0.015
20. AGTTCAGTAT  0.983 ± 0.019
21. AGTGGGTTCA  0.9842 ± 0.0034
22. AGTGGCATTA  0.985 ± 0.028
23. AGTTATATGT  0.985 ± 0.037
24. AGTTGAGGGG  0.985 ± 0.034
25. AGTTTGGGT  0.985 ± 0.032
26. AGTCTTAATA  0.986 ± 0.034
27. AGTGTGATCA  0.9859 ± 0.008
28. AGTTGGGGAT  0.986 ± 0.04
29. AGTTAGGGGT  0.987 ± 0.02
30. AGTGTGTCTT  0.9877 ± 0.004
31. AGTTAGGGCA  0.988 ± 0.042
32. AGTGGACTAG  0.989 ± 0.026
33. AGTTGGGGTG  0.989 ± 0.034
34. AGTTTGAAGG  0.9894 ± 0.0073
35. AGTCTGGGGA  0.99 ± 0.015
36. AGTGGTTGAA  0.99 ± 0.028
37. AGTGTAAAGG  0.991 ± 0.076
38. AGTTGGAGGA  0.991 ± 0.015
39. AGTTCGGGGA  0.992 ± 0.014
40. AGTTTCCGGA  0.992 ± 0.016
41. AGTTAGGTAG  0.9939 ± 0.0081
42. AGTGCATTCT  0.995 ± 0.049
43. AGTGGAGCGG  0.995 ± 0.016
44. AGTGGGGGTA  0.995 ± 0.028
45. AGTGACTTTT  0.9961 ± 0.0089
46. AGTTGGAAAA  0.997 ± 0.01
47. AGTGCTGATG  0.998 ± 0.02
48. AGTGGGGGGC  0.998 ± 0.02
49. AGTTGGGGGT  0.998 ± 0.025
50. AGTTTGTTCT  0.999 ± 0.01
51. AGTCGGTGGA  1 ± 0.011
52. AGTGCACGTG  1 ± 0.061
53. AGTGGACAGC  1 ± 0.031
54. AGTGTTAGTT  1 ± 0.024
55. AGTTAGGGTC  1 ± 0.012
56. AGTTGGTTAG  1.004 ± 0.005
57. AGTTGTTGGA  1 ± 0.047
58. AGTTTGATGT  1 ± 0.023
59. AGTGACGCGT  1.007 ± 0.0033
60. AGTGAGAATT  1.013 ± 0.01
61. AGTGATTGCA  1.007 ± 0.004
62. AGTGCGTCTT  1.01 ± 0.021
63. AGTGGAAATT  1.01 ± 0.049
64. AGTGGCACCG  1.01 ± 0.015
65. AGTGGCGTTC  1.01 ± 0.073
66. AGTGGCTATC  1.01 ± 0.018
67. AGTGGGTATT  1.01 ± 0.016
68. AGTGGTTCGC  1.01 ± 0.024
69. AGTTAATGTT  1.01 ± 0.0026
70. AGTTAGACGA  1.01 ± 0.013
71. AGTTAGTCTG  1.01 ± 0.04
72. AGTTATAATT  1.005 ± 0.0076
73. AGTTGCGGGA  1.0114 ± 0.00031
74. AGTTGTCTCG  1.01 ± 0.058
75. AGTTTCTTAC  1.01 ± 0.024
76. AGTTTGAGTA  1.01 ± 0.027
77. AGTTTGCGGG  1.006 ± 0.0094
78. AGTGACCTAG  1.017 ± 0.0039
79. AGTGCCGGCA  1.02 ± 0.051
80. AGTGCTGCGA  1.02 ± 0.044
81. AGTGGGAGAG  1.02 ± 0.06
82. AGTGGTGGG  1.02 ± 0.068
83. AGTTAGTGAC  1.02 ± 0.024
84. AGTTATTAGG  1.02 ± 0.032
85. AGTTGAGCAG  1.02 ± 0.021
86. AGTTTAAAAC  1.02 ± 0.0077
87. AGTTTACTGT  1.02 ± 0.072
88. AGTTTTCATG  1.02 ± 0.017
89. AGTCTAGATA  1.0302 ± 0.00084
90. AGTCTGAGCG  1.03 ± 0.024
91. AGTGCGCTAT  1.03 ± 0.01
92. AGTTACAGCT  1.03 ± 0.032
93. AGTGCGGAAG  1.04 ± 0.066
94. AGTGTAAAAA  1.04 ± 0.078
95. AGTTTGTACG  1.04 ± 0.024
96. AGTGGGAGTA  1.05 ± 0.052
97. AGTTACAGGG  1.05 ± 0.019
98. AGTTATCAGG  1.06 ± 0.024
99. AGTTAAGGCC  1.09 ± 0.092
100. AGTGAGCAGG  1.11 ± 0.015
